In patent US20040054149:

Molecular target: chondroitinase-treated bovine aggrecan, P13608
Sequence (P13608 17-2364): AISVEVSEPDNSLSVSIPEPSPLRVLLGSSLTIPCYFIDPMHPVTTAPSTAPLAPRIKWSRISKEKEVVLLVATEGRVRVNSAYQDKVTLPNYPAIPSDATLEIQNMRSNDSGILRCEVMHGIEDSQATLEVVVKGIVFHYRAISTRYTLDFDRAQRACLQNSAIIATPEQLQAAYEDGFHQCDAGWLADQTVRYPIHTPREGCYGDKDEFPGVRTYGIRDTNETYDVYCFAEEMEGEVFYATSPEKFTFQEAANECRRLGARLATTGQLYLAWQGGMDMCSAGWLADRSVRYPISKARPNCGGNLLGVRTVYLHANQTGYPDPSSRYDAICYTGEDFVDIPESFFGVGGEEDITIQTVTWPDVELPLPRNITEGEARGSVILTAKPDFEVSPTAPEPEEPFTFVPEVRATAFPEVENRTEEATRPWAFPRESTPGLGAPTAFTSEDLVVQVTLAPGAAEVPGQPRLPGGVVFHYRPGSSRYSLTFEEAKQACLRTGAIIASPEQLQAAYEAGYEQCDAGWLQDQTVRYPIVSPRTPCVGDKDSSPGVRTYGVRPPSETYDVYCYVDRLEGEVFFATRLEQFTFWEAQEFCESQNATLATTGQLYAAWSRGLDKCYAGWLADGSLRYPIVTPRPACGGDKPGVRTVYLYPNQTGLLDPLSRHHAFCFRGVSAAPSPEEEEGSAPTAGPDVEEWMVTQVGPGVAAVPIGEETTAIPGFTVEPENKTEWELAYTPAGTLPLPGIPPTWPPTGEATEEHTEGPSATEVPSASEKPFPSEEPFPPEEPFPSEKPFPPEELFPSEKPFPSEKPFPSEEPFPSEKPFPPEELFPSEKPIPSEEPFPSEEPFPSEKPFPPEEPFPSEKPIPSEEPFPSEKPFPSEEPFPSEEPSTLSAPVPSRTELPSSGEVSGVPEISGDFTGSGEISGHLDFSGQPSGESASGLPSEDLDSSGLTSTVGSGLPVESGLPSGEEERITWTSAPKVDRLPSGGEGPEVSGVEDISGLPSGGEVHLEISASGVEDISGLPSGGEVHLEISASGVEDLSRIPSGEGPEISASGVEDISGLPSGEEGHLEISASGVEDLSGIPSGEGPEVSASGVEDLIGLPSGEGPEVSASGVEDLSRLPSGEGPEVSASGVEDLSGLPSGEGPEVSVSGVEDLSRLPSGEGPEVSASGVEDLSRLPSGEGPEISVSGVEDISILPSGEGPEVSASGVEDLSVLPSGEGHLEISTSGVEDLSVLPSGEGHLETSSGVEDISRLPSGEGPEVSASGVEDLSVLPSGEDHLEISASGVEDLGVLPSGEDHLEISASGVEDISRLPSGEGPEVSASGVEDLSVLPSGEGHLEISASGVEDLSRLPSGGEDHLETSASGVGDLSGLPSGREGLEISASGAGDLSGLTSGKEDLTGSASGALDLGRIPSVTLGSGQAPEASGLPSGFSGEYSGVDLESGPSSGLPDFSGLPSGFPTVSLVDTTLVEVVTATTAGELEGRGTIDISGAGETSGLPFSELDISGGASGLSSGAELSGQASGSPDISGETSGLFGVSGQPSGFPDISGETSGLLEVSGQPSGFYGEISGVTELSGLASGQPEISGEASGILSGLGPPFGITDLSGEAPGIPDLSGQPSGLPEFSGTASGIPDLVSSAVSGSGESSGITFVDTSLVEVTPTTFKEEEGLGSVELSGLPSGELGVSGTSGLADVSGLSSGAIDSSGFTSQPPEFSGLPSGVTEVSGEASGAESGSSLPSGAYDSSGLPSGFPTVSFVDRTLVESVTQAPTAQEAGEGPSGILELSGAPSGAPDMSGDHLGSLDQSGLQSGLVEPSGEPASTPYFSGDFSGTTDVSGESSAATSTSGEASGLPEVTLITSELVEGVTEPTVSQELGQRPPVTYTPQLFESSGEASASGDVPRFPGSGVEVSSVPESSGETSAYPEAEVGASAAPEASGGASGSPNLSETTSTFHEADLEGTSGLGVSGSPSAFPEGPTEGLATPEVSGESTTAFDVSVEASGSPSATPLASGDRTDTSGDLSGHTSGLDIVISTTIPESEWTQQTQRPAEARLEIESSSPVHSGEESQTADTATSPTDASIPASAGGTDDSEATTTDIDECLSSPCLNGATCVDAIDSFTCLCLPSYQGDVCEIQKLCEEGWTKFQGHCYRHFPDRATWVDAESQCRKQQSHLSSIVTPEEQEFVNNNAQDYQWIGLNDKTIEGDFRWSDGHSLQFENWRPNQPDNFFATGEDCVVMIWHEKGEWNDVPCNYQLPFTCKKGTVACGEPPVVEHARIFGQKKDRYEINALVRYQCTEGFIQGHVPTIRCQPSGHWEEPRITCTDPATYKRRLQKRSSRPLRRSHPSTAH

Protein	% aggrecan cleavage (3B3 ELISA assay)	aggrecanase activity (ELISA)
truncated aggrecanase-2 from amino acid #1 through amino acid #628 (protein) SISRARQVELLLVADASMARLYGRGLQHYLLTLASIANRLYSHASIENHIRLAVVKVVVLGDKDKSLEVSKNAATTLKNFCKWQHQHNQLGDDHEEHYDAAILFTREDLCGHHSCDTLGMADVGTICSPERSCAVIEDDGLHAAFTVAHEIGHLLGLSHDDSKFCEETFGSTEDKRLMSSILTSIDASKPWSKCTSATITEFLDDGHGNCLLDLPRKQILGPEELPGQTYDATQQCNLTFGPEYSVCPGMDVCARLWCAVVRQGQMVCLTKKLPAVEGTPCGKGRICLQGKCVDKTKKKYYSTSSHGNWGSWGSWGQCSRSCGGGVQFAYRHCNNPAPRNNGRYCTGKRAIYRSCSLMPCPPNGKSF	truncated aggrecanases of the invention having one or both TSP domains deleted are biologically active	–
truncated aggrecanase-2 from amino acid #1 through amino acid #567 (protein) SISRARQVELLLVADASMARLYGRGLQHYLLTLASIANRLYSHASIENHIRLAVVKVVVLGDKDKSLEVSKNAATTLKNFCKWQHQHNQLGDDHEEHYDAAILFTREDLCGHHSCDTLGMADVGTICSPERSCAVIEDDGLHAAFTVAHEIGHLLGLSHDDSKFCEETFGSTEDKRLMSSILTSIDASKPWSKCTSATITEFLDDGHGNCLLDLPRKQILGPEELPGQTYDATQQCNLTFGPEYSVCPGMDVCARLWCAVVRQGQMVCLTKKLPAVEGTPCGKGRICLQGKCVDKTKKKYYSTSSH	truncated aggrecanases of the invention having one or both TSP domains deleted are biologically active	–
ADAMTS-5 active site mutant (E411-Q411) (protein) SISRARQVELLLVADASMARLYGRGLQHYLLTLASIANRLYSHASIENHIRLAVVKVVVLGDKDKSLEVSKNAATTLKNFCKWQHQHNQLGDDHEEHYDAAILFTREDLCGHHSCDTLGMADVGTICSPERSCAVIEDDGLHAAFTVAHQIGHLLGLSHDDSKFCEETFGSTEDKRLMSSILTSIDASKPWSKCTSATITEFLDDGHGNCLLDLPRKQILGPEELPGQTYDATQQCNLTFGPEYSVCPGMDVCARLWCAVVRQGQMVCLTKKLPAVEGTPCGKGRICLQGKCVDKTKKKYYSTSSHGNWGSWGSWGQCSRSCGGGVQFAYRHCNNPAPRNNGRYCTGKRAIYRSCSLMPCPPNGKSFRHEQCEAKNGYQSDAKGVKTFVEWVPKYAGVLPADVCKLTCRAKGTGYYVVFSPKVTDGTECRPYSNSVCVRGKCVRTGCDGIIGSKLQYDKCGVCGGDNSSCTKIVGTFNKKSKGYTDVVRIPEGATHIKVRQFKAKDQTRFTAYLALKKKNGEYLINGKYMISTSETIIDINGTVMNYSGWSHRDDFLHGMGYSATKEILIVQILATDPTKPLDVRYSFFVPKKSTPKVNSVTSHGSNKVGSHTSQPQWVTGPWLACSRTCDTGWHTRTVQCQDGNRKLAKGCPLSQRPSAFKQCLLKKC	–	lacked aggrecanase activity as shown by ELISA (FIG. 16)
